From article doi:10.1101/2023.08.01.551421 (bioRxiv, 2023) come the findings set out here.

Test [1] has as its target GBP1 M139E, non-farnesylated (human) (UniProt P32455). The experiment in a line: SEC. For orientation: Size exclusion chromatography separates by hydrodynamic size, large species first.
Test [2] deals with GBP1 Δ207-223 variant, non-farnesylated (human) (UniProt P32455).
Test [3] has the same target. Nature of the test: cross-linking.
In test [4] the target is GBP1 Δ207-223 variant, farnesylated (human) (UniProt P32455). Nature of the test: cross-linking.
In test [5] the target is GBP1 M139R, non-farnesylated (human) (UniProt P32455). Nature of the test: SEC.
In test [6] the target is T1, human guanylate-binding protein 1 (GBP1), wild type, non-farnesylated (human), P32455.
T1 chain: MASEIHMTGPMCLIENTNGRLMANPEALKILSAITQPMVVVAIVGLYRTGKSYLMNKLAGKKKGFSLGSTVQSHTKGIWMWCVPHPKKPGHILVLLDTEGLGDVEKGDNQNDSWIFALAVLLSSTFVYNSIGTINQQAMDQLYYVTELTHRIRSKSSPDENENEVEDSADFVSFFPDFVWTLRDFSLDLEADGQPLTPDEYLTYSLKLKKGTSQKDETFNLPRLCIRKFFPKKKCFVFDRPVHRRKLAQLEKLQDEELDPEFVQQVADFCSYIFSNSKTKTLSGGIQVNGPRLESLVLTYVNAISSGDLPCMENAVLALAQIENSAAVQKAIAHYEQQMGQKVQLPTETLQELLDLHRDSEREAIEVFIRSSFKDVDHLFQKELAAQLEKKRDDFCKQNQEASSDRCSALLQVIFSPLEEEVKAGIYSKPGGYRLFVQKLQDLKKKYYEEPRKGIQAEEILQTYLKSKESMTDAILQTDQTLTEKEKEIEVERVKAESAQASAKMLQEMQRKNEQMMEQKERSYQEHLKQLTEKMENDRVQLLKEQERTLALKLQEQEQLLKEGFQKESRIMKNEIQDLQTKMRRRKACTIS
Nature of the test: cross-linking. Conditions: remark: other sources report otherwise.

Test [7] has as its target T1, human guanylate-binding protein 1 …. Nature of the test: GTP hydrolysis assay. Conditions: remark: other sources report otherwise.
In test [8] the target is T2, human guanylate-binding protein 1 (GBP1), wild type, farnesylated (human), P32455.
T2 chain: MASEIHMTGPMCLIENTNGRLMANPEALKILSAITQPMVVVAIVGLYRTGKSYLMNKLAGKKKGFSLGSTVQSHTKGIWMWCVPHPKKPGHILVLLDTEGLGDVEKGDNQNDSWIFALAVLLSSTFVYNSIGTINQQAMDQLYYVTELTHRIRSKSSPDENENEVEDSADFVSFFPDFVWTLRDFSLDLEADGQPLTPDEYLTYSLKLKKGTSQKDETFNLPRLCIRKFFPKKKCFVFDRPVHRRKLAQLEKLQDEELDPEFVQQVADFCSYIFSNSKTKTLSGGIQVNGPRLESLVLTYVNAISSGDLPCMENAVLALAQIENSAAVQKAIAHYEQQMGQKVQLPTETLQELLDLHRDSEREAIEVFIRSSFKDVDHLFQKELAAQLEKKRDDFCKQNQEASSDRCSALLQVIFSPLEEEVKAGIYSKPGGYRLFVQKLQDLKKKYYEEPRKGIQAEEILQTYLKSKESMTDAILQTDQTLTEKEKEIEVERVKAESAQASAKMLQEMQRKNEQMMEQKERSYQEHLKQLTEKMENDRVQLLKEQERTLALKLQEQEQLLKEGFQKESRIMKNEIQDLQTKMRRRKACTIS
The experiment in a line: cryo-EM structure. To be noted: remark: other sources report otherwise.

As usually defined, the stoichiometry N is the number of molecules, sites or subunits per partner or assembly. With “GBP1 M139E, non-farnesylated (from UniProt P32455 1-592) (natural protein)”, the stoichiometry N in test [1] was 2.

On to “GBP1 Δ207-223 variant, non-farnesylated (from UniProt P32455 1-592) (natural protein)”, for which the catalytic GTPase activity against wild-type (GTP hydrolysis assay) in test [2] turned out to be 1.7 fold. Also, the stoichiometry N in test [3] turned out to be 2.

In test [4], “GBP1 Δ207-223 variant, farnesylated (from UniProt P32455) (natural protein)” registered a stoichiometry N of 2.

In test [5], “GBP1 M139R, non-farnesylated (from UniProt P32455 1-592) (natural protein)” registered a stoichiometry N of 2.

B1: human guanylate-binding protein 1 (GBP1), wild type, non-farnesylated, P32455 1-592 (natural protein)
chain: MASEIHMTGPMCLIENTNGRLMANPEALKILSAITQPMVVVAIVGLYRTGKSYLMNKLAGKKKGFSLGSTVQSHTKGIWMWCVPHPKKPGHILVLLDTEGLGDVEKGDNQNDSWIFALAVLLSSTFVYNSIGTINQQAMDQLYYVTELTHRIRSKSSPDENENEVEDSADFVSFFPDFVWTLRDFSLDLEADGQPLTPDEYLTYSLKLKKGTSQKDETFNLPRLCIRKFFPKKKCFVFDRPVHRRKLAQLEKLQDEELDPEFVQQVADFCSYIFSNSKTKTLSGGIQVNGPRLESLVLTYVNAISSGDLPCMENAVLALAQIENSAAVQKAIAHYEQQMGQKVQLPTETLQELLDLHRDSEREAIEVFIRSSFKDVDHLFQKELAAQLEKKRDDFCKQNQEASSDRCSALLQVIFSPLEEEVKAGIYSKPGGYRLFVQKLQDLKKKYYEEPRKGIQAEEILQTYLKSKESMTDAILQTDQTLTEKEKEIEVERVKAESAQASAKMLQEMQRKNEQMMEQKERSYQEHLKQLTEKMENDRVQLLKEQERTLALKLQEQEQLLKEGFQKESRIMKNEIQDLQTKMRRRKACTIS
A word on the Kd: it is the free concentration of one partner at which half of the binding sites on the other are occupied at equilibrium, for simple one-to-one binding. The low end stands for a tighter complex, the high end for a looser complex. For B1, the stoichiometry N in test [6] amounted to 2. This molecule also gave a Kd in test [7] of 1900 nM.

B2: human guanylate-binding protein 1 (GBP1), wild type, farnesylated, P32455 (natural protein)
chain: MASEIHMTGPMCLIENTNGRLMANPEALKILSAITQPMVVVAIVGLYRTGKSYLMNKLAGKKKGFSLGSTVQSHTKGIWMWCVPHPKKPGHILVLLDTEGLGDVEKGDNQNDSWIFALAVLLSSTFVYNSIGTINQQAMDQLYYVTELTHRIRSKSSPDENENEVEDSADFVSFFPDFVWTLRDFSLDLEADGQPLTPDEYLTYSLKLKKGTSQKDETFNLPRLCIRKFFPKKKCFVFDRPVHRRKLAQLEKLQDEELDPEFVQQVADFCSYIFSNSKTKTLSGGIQVNGPRLESLVLTYVNAISSGDLPCMENAVLALAQIENSAAVQKAIAHYEQQMGQKVQLPTETLQELLDLHRDSEREAIEVFIRSSFKDVDHLFQKELAAQLEKKRDDFCKQNQEASSDRCSALLQVIFSPLEEEVKAGIYSKPGGYRLFVQKLQDLKKKYYEEPRKGIQAEEILQTYLKSKESMTDAILQTDQTLTEKEKEIEVERVKAESAQASAKMLQEMQRKNEQMMEQKERSYQEHLKQLTEKMENDRVQLLKEQERTLALKLQEQEQLLKEGFQKESRIMKNEIQDLQTKMRRRKACTIS
modifications: here or on the partner: farnesyl moiety, C-terminal (CaaX box motif); farnesyl moiety, C-terminal (CaaX box motif)
In turn, B2 showed a subunits (outstretched GBP1 dimers) in one planar disk in test [8] of 30.
